Test [1] has as its system human melanoma and carcinoma cell lines. Description: αV-mediated cell attachment to vitronectin, cell line panel. To be noted: read-out: IC50 in cellular assay. Type of test: cell-based. Here is the method: (§1) Cell Attachment Assays were as previously described (Goodman et al., 1991), using hexosaminidase activity (Landegren, 1984) to detect attached cells. Dilutions and cell suspensions were in attachment buffer (RPMI, 1% BSA, 25 mM HEPES; pH 7.4). Matrix proteins were coated onto 96- or 48-well plates, the wells were blocked with BSA and serially diluted MAbs were added to the wells followed by cells (2.5×10^4 -5×10^4). After 1 h at 37° C., non-adherent cells were washed away and attached cells counted against a standard curve run in parallel. Inhibition of attachment was calculated by using wells with no MAbs as reference. Typically, over 70% of added cells had attached to vitronectin at 1 h. Cell attachment to wells coated with BSA alone was routinely less than 5% of specifically attached cells.

Test [2] addresses T1, integrin αvβ3 on human cells (human, UniProt P06756).
Test [3] addresses purified human placental integrin αvβ3 (human) (UniProt P06756). Description: pre-block competition: ligand pre-bound to αvβ3-coated plates, labelled 17E6 as probe.
The target is the same in test [4]. Nature of the test: isolated receptor assay, vitronectin on αvβ3-coated plates.
The target of test [5] is human αv-integrin chain on the cell surface (human, UniProt P06756). Description: cell-based or functional assay.
The target of test [6] is purified human placental integrin αvβ3 (human) (UniProt P06756). Description: ELISA on isolated αvβ3. A general note: In an ELISA, binding on a coated surface is turned into a signal by an enzyme label.
The target of test [7] is T1, integrin αvβ3 on human cells. Description: cell-based or functional assay.
Test [8] has as its target T2, integrin αvβ5 on human cells (human, UniProt P06756). Nature of the test: cell-based or functional assay.
The test system of the next test is purified αvβ3. Description: ELISA on purified αvβ3. Particulars: FIG. 10. The class given is binding, human.
The next test has as its system αvβ5 (UCLA-P3 cells). Nature of the test: Cell attachment to vitronectin mediated by αvβ5 (UCLA-P3 cells). Type of test: cell-based, human. To be noted: vitronectin, FIG. 11. As for the experimental part: as §1
A further test relates to αvβ1 (V+B2 cells). Nature of the test: Cell attachment to vitronectin mediated by αvβ1 (V+B2 cells). To be noted: FIG. 11. The class given is cell-based. Here is the method: as §1
The subject of test [9] is αvβ3 (WM164 and M21 cells). Description: Cell attachment to vitronectin mediated by αvβ3 (WM164 and M21 cells). To be noted: FIG. 11. Type of test: cell-based, human. As for the experimental part:
as §1

For test [10], the target named is T2, integrin αvβ5 on human cells. Also on record: IC50, M21 cell attachment to vitronectin: unit not given beside the values.
The target in test [11] is human αv-integrin chain on the cell surface (human) (UniProt P06756). Also on record: IC50, M21 cell attachment to vitronectin: unit not given beside the values.
Test [12] has the same target.
For test [13] the target is unchanged. The source holds these as a separate data set.
The target in test [14] is integrin αIIbβ3 on M21-L-IIb cells (human, UniProt P08514). Nature of the test: CELISA, fixed M21-L-IIb cells.
In test [15] the target is integrin β3 chain, intracellular pool of M21-L cells (human, UniProt P05106). Description: flow cytometry, permeabilized M21-L cells.
Test [16] concerns the target purified human placental integrin αvβ3 (human) (UniProt P06756). Nature of the test: direct competition with biotinylated vitronectin on αvβ3-coated plates, 70 nM antibody.
The target of test [17] is integrin αvβ1 on V+B2 cells.

Values joined by “and” are separate entries in the source; they are usually repeats but may differ in a detail not shown here. Equal entries are not always repeated. Where two headings read alike, the source gives them in different places.

As to `CC(C)[C@@H]1NC(=O)[C@@H](Cc2ccccc2)NC(=O)[C@H](CC(=O)O)NC(=O)CNC(=O)[C@H](CCCNC(=N)N)NC1=O` [cRGDfV, cyclic peptide: Arg-Gly-Asp-DPhe-Val, reference compound], the IC50 (usually the concentration that gives 50% inhibition) in [1] is about 1000 nM.

For the molecule LM609 (antibody), in [2], the IC50, WM793 cell attachment to vitronectin was 0.6 µg/mL.

With fibrinogen (ligand), the % block of labelled 17E6 binding in test [3] is under 10%.

With “vitronectin (from UniProt P04004) (ligand)”, in test [4], the saturation concentration was 5 µg ml^-1 and 10 nM. Moreover, the % block of labelled 17E6 binding in test [3] was under 10%.

B1: linear peptide GRGDSPK (peptide)
peptide: GRGDSPK
For B1, the “IC50, αV-mediated cell attachment” value in test [5] was about 5000 nM.

B2: 17E6 F(ab')2 fragment (other)
VH: QVQLQQSGAELAEPGASVKMSCKASGYTFSSFWMHWVKQRPGQGLEWIGYINPRSGYTECNEIFRDKATMTADTSSSTAYMQLSGLTSEDSAVYYCASFLGRGAMDYWGQGTSVTVSS
VL: DIQMTQTTSSLSASLGDRVIISCRASQDISNYLSWYQQKPDGTVKLLIFYTSKLHSGVPSRFSGSGSGTDYSLTISNLDQEDIATYFCQQGNTFPYTFGGGTKVEMR
Take B2: in test [6], the EC50 (commonly the concentration needed to bring the measured effect to its halfway point) is 0.001 µg/mL. The “IC50, WM164 and M21 cell attachment to vitronectin” value (shortened to “IC50, WM164 and M21 cell attachment”) in test [7] is ~0.5 µg ml^-1 and ~3 nM. The “IC50, UCLA-P3 cell attachment to vitronectin” value in [8] is ~0.1 µg ml^-1 and ~700 pM.

B3: F(ab')2: F(ab')2 fragment of 17E6 prepared by pepsin cleavage (antibody, V domains shown)
VH: QVQLQQSGAELAEPGASVKMSCKASGYTFSSFWMHWVKQRPGQGLEWIGYINPRSGYTECNEIFRDKATMTADTSSSTAYMQLSGLTSEDSAVYYCASFLGRGAMDYWGQGTSVTVSS
VL: DIQMTQTTSSLSASLGDRVIISCRASQDISNYLSWYQQKPDGTVKLLIFYTSKLHSGVPSRFSGSGSGTDYSLTISNLDQEDIATYFCQQGNTFPYTFGGGTKVEMR
Turning to B3, the “50% saturation in ELISA on isolated αvβ3” value with purified αvβ3 is given as ~ 1 ng ml^-1. Moreover, the “IC50, cell attachment mediated by αvβ5 (UCLA-P3 cells)” value in the test with αvβ5 (UCLA-P3 cells) was ~ 0.1 μg ml^-1. For the same molecule, the “IC50, cell attachment mediated by αvβ1 (V+B2 cells)” value in the test with αvβ1 (V+B2 cells) was ~ 0.1 μg ml^-1. Also, the “IC50, αvβ3 attachment (WM164 and M21 cells)” value in [9] is given as ~ 0.5 μg ml^-1.

B4: monoclonal antibody 17E6 (antibody, V domains shown)
VH: QVQLQQSGAELAEPGASVKMSCKASGYTFSSFWMHWVKQRPGQGLEWIGYINPRSGYTECNEIFRDKATMTADTSSSTAYMQLSGLTSEDSAVYYCASFLGRGAMDYWGQGTSVTVSS
VL: DIQMTQTTSSLSASLGDRVIISCRASQDISNYLSWYQQKPDGTVKLLIFYTSKLHSGVPSRFSGSGSGTDYSLTISNLDQEDIATYFCQQGNTFPYTFGGGTKVEMR
B4 showed an IC50, UCLAP3 cell attachment to vitronectin in test [10] of 0.03 µg/mL. Moreover, in test [11], the IC50, M21 cell attachment to vitronectin came out at 0.1 and the M21 cell attachment to vitronectin, purified antibody was 85%. The IC50, αV-mediated cell attachment in [12] is 0.3 to 1 nM. For the same molecule, the IC50, cellular attachment assay in test [13] turned out to be 0.1 µg/mL. Moreover, in test [7], the “IC50, WM164 and M21 cell attachment” value was ~0.5 µg ml^-1 and ~3 nM; the “IC50, WM793 cell attachment to vitronectin” value was about 0.06 µg/mL. The binding result in test [14] is on record as “no binding”. Moreover, in [15], the binding result is recorded as “no binding”. In test [16], this molecule gave a % inhibition of vitronectin binding of under 30%.

B5: 17E6 F(ab') fragment (Fab, V domains shown)
VH: QVQLQQSGAELAEPGASVKMSCKASGYTFSSFWMHWVKQRPGQGLEWIGYINPRSGYTECNEIFRDKATMTADTSSSTAYMQLSGLTSEDSAVYYCASFLGRGAMDYWGQGTSVTVSS
VL: DIQMTQTTSSLSASLGDRVIISCRASQDISNYLSWYQQKPDGTVKLLIFYTSKLHSGVPSRFSGSGSGTDYSLTISNLDQEDIATYFCQQGNTFPYTFGGGTKVEMR
Turning to B5, the fold activity in cell attachment to vitronectin, against αvβ3 in [17] and in test [8] was 10000 fold throughout. Besides, the EC50 in test [6] is 0.001 µg/mL. The “IC50, WM164 and M21 cell attachment” value in [7] was > 50 µg ml^-1 and > 400 nM.
